Test results as given in the supplement of paper PMC12636428.

test system: Saccharomyces cerevisiae; experiment: transcriptional activation domain activity (GFP:mCherry ratio, weighted mean of sorted bins, harmonized to initial dataset scale) (arbitrary fluorescence ratio units); higher = stronger transcriptional activation; conditions: beta-estradiol 1 µM; induction time 4 h
Protocol: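 53-aa protein tiles (fungal proteins plus yeast TF control tiles) fused C-terminally to a DBD-estrogen-binding domain-mCherry synthetic TF, integrated in S. cerevisiae (URA3 locus) with a GFP reporter. Cells were induced with 1 uM beta-estradiol for 4 h at 30 C, FACS-sorted into 8 bins by GFP:mCherry ratio and barcodes sequenced. Activity is the read-weighted mean bin fluorescence (GFP:mCherry), averaged over barcodes (median 12); tiles under 50 reads were discarded. New active-learning values were harmonized by linear fit onto the scale of the initial (Hummel et al.) dataset. The assay saturates at low and high signal.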

Sequence	transcriptional activation domain activity
TSTSGGSLFGGGSTAAPSTGSGGLFGNNSSTPATGAQPGTSLFGKPAGGATAG	14200
KGEERGMEKDKEKDKDRDREVKKEKAREARADKEGARPKAAIRQVKVKSAVKQ	56500
TSAFGGGNTGGGLFGQQNKPTTGFGSSPAPAGGLFGGGSGTTTSTPAFGAAAA	37300
FGLFGPLDFLDFLDLWTFWTFWTLNFLDFWTFGLFGLLALDLDFLDFLDFLDL	57800
TGNSVWAFHALLSKGYFHMLCKDIDINPERVLATLMLVLSHIFERQLCKHSDI	48500
MFKSVFCLFSVLSFLLFHACFIYHSFFSFLFLLMMKLLLWLCATFATKWLFFC	69500
QQEGLKAELPHDFLFQHGTDDTMYNLTDDLSSSLSSSINSDMMTPNTYSSSFS	65000
MVSYLIGALDIHMYGIWFWPFWLFESWASWIGLRDVFYLFIFFPLFFSLYSTL	49600
CWWPFGIPVYMFFHAPETVHYSYFLFFFLSLSLPAMLNIYLVIFIVSWLKSVP	38200
AAFSGEGDPWPGVAREIDENGENVGLAASRPAPAFLRVLTAVRVRVRIAFAFV	54500
TYIPCDPLLTIVGGNVPFSSLGLRAFSLAMYSLLVIPGLNLVLPFLFFLLLHL	92200
YGARPAAAAEEEEAAEPAEEEAAGEATEAEAGEEEAEATGEEETAEGEGAEGA	25500
MGVLFCVWSKFMGLHYSLVFFFVYPFSHCFSLLFPFFFFTIMSWYIVFYHTCF	70300
SREFLWVGFGVRCMVLAKFQVIKGLKYIRTIIAQKNQSAGLAIELRILMVVWV	43800
MYVGGVFSVSLFESVCYFVIFFSSLDLLLLLLLLFFSFLFFSFLFFFFSLVPS	44800
ISAQEFSRNFTEDVDESLQSEIDLMNYDNEALNQLMAIDLDKLLGIFPNLSNF	140000
MFCLRSWLPLLFIPTNASPAFILLFFIGTYFLNRPCVYCSLLLLILFCTSCVW	40200
KVAYRNPAADSEGWRRWGNDEARHGTLGVEEMERRIEALRKAKVGGGMVKVGF	35500
MGVYLQKLGWGYRVWRFLFWMGLSLVSFLFFICCFSLSVHTCFFFFWLGRLGW	27300
MCCLVLSLALLGRHGGMNIFFLCFYVGSFVFIFLRVLVVRLLLLLLLCYYQAL	70200

Sequence	transcriptional activation domain activity
MFCLRFFVPLLLLPAPSAPPLLILTLLISMWFLHRPCIYCSLLIVGFLISSCS	55900
RPAPAKSKARSSRKAVVEEPEIPQAQEEEEDVKPVIRGRKKRVSIAEPEKPKR	35300
LILLRLLWPVTLYFFVSLMYSLLSLAFGVPFSRNFGHAGFLIYWMMSWCSMSA	62400
MLFSLYLFFYFLFFVCDGYVTMGSVFFFCSCWWCSYYYLTINIGLTNYFFPPL	53300
GSHQGKEAKKEEGKKEEGKDKKEEEEGKKGGKKGGKKGGKGGKGKKTGETEAS	38000
NIAQNMNQFRRQQVVYSPDTRKYSLLIREGRVGYPGVACMEIESTDPSLVVDK	35000
RRWQWYWGCFVCACALISLFLNVEVDRYRVQQLPLIVTSFFWYLMCMGTTCVV	44600
TMFHGLLFHLCHGAAVLVVWSFHHVVCSMRDDEETLQVMEELDYVIHVLNAFA	47800
NLMVIVLFVGNLRLVIENIQKYGVLICIRCHDVRESDLILGLSLYFLIPCHLL	67300
THYLCFIFSPRKLWPMNTQVSIPLFHLLILPVSPWIKQLYWLVFWNLFFVWWM	56200
MLLSAHFIDFFLLLLLLLLLHLIVPLIFILHHSLLFFLVLPIVCNYFFSWLPV	78400
WERIREKASILALAYRLGVLLFALHFLFCLSQPPRFARLFWLSFSLLVPSTFF	59000
TSIRKIRAGESGGGESGGGESSGGESSGGGERGRRRRGAKEVEVRARGGGKAT	43700
ESDILPRLLHAIRAELKEDISLKFAWRLYKLYLLCVYHLWKNVVLMIWYRRWI	81700
LSGLFSGYLCLFVSGFHIVMTEGILVIGYLVSPVFLFFFPLPFIFVMFPLHFV	76700
EGEREREREGEEMEEVMREGTNREEKKEEEEEGKRKDKRRKETGNLLLLLVVV	40400
NESGPGAADEDAEEDDEESDEDGAGRKRKKPKVEPKPKPERKAPAPAPADGEK	< 6570
MGCVRHEKVIDITLKLFYKKTGGRYLKSEYNLFAVLVYLCLYRLPTDLPFATL	53200
AAATTADAKPASSAADKASSSVAAASAGQATASTDSGTAKAEKKKKGKAAAVA	8920
